# B1: triosephosphate isomerase from Cryptosporidium parvum Iowa II (enzyme, UniProt Q5CSE7 1-250, looked up)
# chain: MSRKYFVGGNFKCNGTKESLKTLIDSFKQVESSNSEVYVFPTSLHISLVKEFFGNDHPGVFKIGSQNISCTGNGAFTGEVSCEMLKDMDVDCSLVGHSERRQYYSETDQIVNNKVKKGLENGLKIVLCIGESLSERETGKTNDVIQKQLTEALKDVSDLSNLVIAYEPIWAIGTGVVATPGQAQEAHAFIREYVTRMYNPQVSSNLRIIYGGSVTPDNCNELIKCADIDGFLVGGASLKPTFAKIIESAQ
# notes: triosephosphate isomerase, Cryptosporidium parvum Iowa II, UniProt Q5CSE7, residues 1-250 (Met1-Gln250), full length; The final model extends from Ser2 to Gln250 in both chains; also called TIM; CrpaA.01119.a.A1; source: E. coli Rosetta Oxford strain [BL21*(DE3)-R3-pRARE2], purified (IMAC, tag cleavage with 3C protease, SEC)
# Target: the molecule itself
# Assay: crystal structure; crystals from 100 mM Bis-Tris propane pH 7.5, 200 mM sodium sulfate, 20% PEG 3350; space group P2(1); 1.55 Å; two molecules per asymmetric unit; interface analysed with PISA
protein,measurement,value
B1,stoichiometry N,2

# Source: publication PMC3169408, “Structure of triosephosphate isomerase from Cryptosporidium parvum” (Acta Crystallographica Section F: Structural Biology and …, 2011)
